No end group written: not given here. *: point of attachment. βGlcNAc = CC(=O)N[C@@H]1[C@@H](O)[C@H](O)[C@@H](CO)O[C@H]1*
What was measured:
[1] = molecular target: yeast alpha-glucosidase (yeast)
[2] = molecular target: yeast alpha-glucosidase (yeast); conditions: scale: decrease of umole of glucose production from maltose per microgram of protein per hour
[3] = molecular target: yeast alpha-glucosidase (yeast); remark: listed apart in the source
[4] = molecular target: yeast alpha-glucosidase (yeast); remark: listed apart in the source

B1: PNGase treated CON-1 (protein)
chain: SPPGKPQGPPPQGGNQPQGPPPPPGKPQGPPPQGGNKPQGPPPPGKPQGPPPQGDNKSQSARSPPGKPQGPPPQGGNQPQGPPPPPGKPQGPPPQGGNKSQGPPPPGKPQGPPPQGGSKSRSSR
modifications: carbohydrate moiety removed with PNGase
Question: How did the alpha-glucosidase inhibition assay [1] turn out when B1 was run?
Answer: Its alpha-glucosidase inhibition assay is 50 percent.

B2: CON-1 (protein)
chain: B1 chain
modifications: glycoprotein; glycosylation occurs at one N-linked site (acetylglucosamine on asparagine of glycine-glycine-asparagine-lysine)
Question: How did the Specific Inhibitory Activity [2] turn out when B2 was run?
Answer: The Specific Inhibitory Activity was 2810.

B3: synthetic glycopeptide Gylcyl-glycl-(NB-2-(acetylamino)-deoxy-2-B-pyranosyl)-asparaginyl-lysine (peptide)
peptide: GGN(βGlcNAc)K
Question: B3 was tested. Which inhibitory effect on alpha-glucosidase activity [3] did it give?
Answer: The inhibitory effect on alpha-glucosidase activity was 90%.

B4: pyridoxal 5-phosphate modified glycopeptide (peptide)
peptide: GGN(βGlcNAc)K(pyridoxal 5‑phosphate)
Question: How did the inhibitory effect on alpha-glucosidase activity (% increase in inhibitory effect) [4] turn out when B4 was run?
Answer: The inhibitory effect on alpha-glucosidase activity (% increase in inhibitory effect) was 50.

B5: glycopeptide treated with N-acetylglucosaminidase (peptide)
peptide: GGNK
modifications: acetylglucosamine cleaved off the asparagine with N-acetylglucosaminidase
Question: For B5, which inhibitory effect on alpha-glucosidase activity (% of inhibition lost) [4] is on record?
Answer: The inhibitory effect on alpha-glucosidase activity (% of inhibition lost) was 20.
